{
  "source": "the nanobody polyreactivity screen of Harvey et al. (2022)",
  "data": [
    {"test": "yeast display, Sf9 membrane polyspecificity reagent, FACS + sequencing; frameworks hold sequencing errors", "procedure,_shortened": "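A nanobody's polyreactivity label depends on the gate it was sorted from. Yeast display cells were stained with 10% biotinylated, detergent-solubilized Sf9 membrane reagent for 1 hour at 4 °C, enriched on streptavidin microbeads and sorted by FACS. The low and high (top ~1%) gates were set on anti-HA fluorescence for expression and streptavidin fluorescence for reagent binding.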", "values": [
      {"sequence": "QVQLVESGGGLVQAGGSLRLSCAASGLTLYRYTMGWYRQAPGKERELVAGISRGGSTYYADSVKGRFTISRDNAKNTVYLQMNSLKPEDTAVYYCAAYYGGHYYAYSYDYWGQGTQVTVSS", "polyreactivity (PSR sort gate)": "high polyreactivity"},
      {"sequence": "QVQLVESGGGLVQAGGSLRLSCAASGSTIVDYAMGWYRQAPGKERELVAAITSGDSTNYADSVKGRFTISRDNAKNTVYLLMKSLKPEDTAVYYCAARLRYSFWYWDDYWGQGTQVSVSS", "polyreactivity (PSR sort gate)": "high polyreactivity"},
      {"sequence": "QVQLVESGGGLVQAGGSLRLSCAASGRTSRYYAMGWYRQAPGKERELVAGISWSGGNTYYADSVKGRFTISRDNAKNTVYLQMNSLKPEDTAVYYCNARIGWSPSRYGYWGQGTQVTVSS", "polyreactivity (PSR sort gate)": "high polyreactivity"},
      {"sequence": "QVQLVESGGGLVQAGGSLRLSCAASGSTFAWYAMGWYRQAPGKERELVAAISRTGRTYYADSVKGRFTISRDNAKNTVYLQMNSLKPEDTAVYYCAARIERFYRDQRYDYWGQGTQVTVSS", "polyreactivity (PSR sort gate)": "high polyreactivity"},
      {"sequence": "QVQLVESGGGIVQAGRSLRLSCAASGNTFYLYAMGWYRQAPGKERELVATITSGGRTTYADSVKGRFTISRDNAKNTVYLQMNSLKPEDTAVYYCAARRVQYYGWGGMEYWGQGTQVTVSS", "polyreactivity (PSR sort gate)": "high polyreactivity"},
      {"sequence": "QVQLVESGGGLVQAGGRLRLSCAASGSTFLSNDMGWYRQAPGKERELVAAISQSGGNTYYADSVKGRFTISRDKAKNTVYLQMNSVKPEDTAVYYWAALDYWVQGTQVTVSS", "polyreactivity (PSR sort gate)": "low polyreactivity"},
      {"sequence": "QVQLVESGGGLVQAGGRLRLTCAASGCTFFTNSMGWYRQAPGKERELFGAITVSGSTYYADSVKGRFTFSRDNAKNTVYLQMNSLNPEDTAVYYCAAVFWRRQYGYYIFTTLDYWGHGTQVTVSS", "polyreactivity (PSR sort gate)": "high polyreactivity"},
      {"sequence": "QVQLVESGGGLVQAGGSLRLSCAASGSIFEWYAMGWYRQAPGKERELVAAIDISGGDTYYADSVKGRFTISHDNAKNNVYLQRNSLKPEDTAVYYCAATRPASYAAYDYWGQGTQVTVSS", "polyreactivity (PSR sort gate)": "high polyreactivity"},
      {"sequence": "QVQLVESGGGLVQAGGSLRLSCAASGRIFYAYAMGWYRPAPGKERELVAAITWRGGRTFYADSVKGRFTISRDNAKNTVYLQMNSLKPEDTAVYYCATRGAPYGMDYWGQGTQVTVSS", "polyreactivity (PSR sort gate)": "high polyreactivity"},
      {"sequence": "QVQLVESGGGLVQAGGSLRLSCAASGRNFGTNAMGWYRQAPGKERELVASIDLSADSTYYADSVKGRFTISRDNAKNTVYLQMNSLKPEDTAVYYCNKDGYPWPPNLDYWGQGTQVTVSS", "polyreactivity (PSR sort gate)": "low polyreactivity"},
      {"sequence": "QVQLVESGGGLVQAGGSLRLICAASALIFGAYTMGWYIQAPGKERELVAAIRRSGSTYYPDSVKGRFTISRDNAKNTVYLQMNSLKPEDTAVYYGNARIGPGRYTYYRSGYDYWGQGTQVTVSS", "polyreactivity (PSR sort gate)": "high polyreactivity"},
      {"sequence": "QVQLVESGGGLVQAGGSLRLSCAASGIIFASNGMGWSRQPPGKERELVAAISSGGSTNYADSVKGRFTISRDNAKNTVYLQMNSLKPEDTAVYYCAAVRWYREYDYWGQGTQVTVSS", "polyreactivity (PSR sort gate)": "low polyreactivity"},
      {"sequence": "QVQLVESGGGLVQAGGSLRLSCAASGYIFVTNAMGWYRQAPGKERELVAAISYRGGSTSYADSVKGRFTISRDNAMNTVYLQMNSLKPEDTAVYYCNAVTFPLGYLRFYYWGQGTQVTVSS", "polyreactivity (PSR sort gate)": "low polyreactivity"},
      {"sequence": "QVQLVESGGGLVQAGGSLRLICAASGSTIAVYAIGWYRQAPGKERELVASISFSVVSTSYADSVKGRFTISRDNAKNTVYLQMNSLKPEDTAVYYCSTYYVRASYRYDYWGQGTQVTVSS", "polyreactivity (PSR sort gate)": "high polyreactivity"},
      {"sequence": "QVQLVESGGGLVQAGGSLRLSCAASGSIFEVYAMGWYRQAPGKERELVAAIDYSDGTTYYADSVKGRFTISRDNAKNTVYLQMNSLKPEDTAGYYCAADFPGQHYDYWGQGTQVTVSS", "polyreactivity (PSR sort gate)": "low polyreactivity"},
      {"sequence": "QVQLVESGGGLVQAGGSLRLTCAASGRTSNGYAMGWYRQAPGNERELVAAYADSVKGRFTISRDNAKNTVYLQMNSLKPEETAVYYCNADYDPVSRVGYVYWAYYYWGQGTQVTVSS", "polyreactivity (PSR sort gate)": "low polyreactivity"},
      {"sequence": "QVQLVESGVGIVQAGRSHRVSCAASGSTYNPYAMGWYRQAPGKESELVARIRGSGGSTYYADSVKVRFTISRDNAKNPVFLHMNSQKPEDTAVYYCATDDYYLSRYRLVGYYSWGQGTQVTVSS", "polyreactivity (PSR sort gate)": "high polyreactivity"},
      {"sequence": "QVQLVESGGGLVQAGGSLRLSSAASGYIFTPYAMGWYRQAPGKERELVAAISSSTVRTFYADSVKGRFTISRDNAKNTVYLQMNSLKPEDTAVYYCAARGYWGQGTQVTVSS", "polyreactivity (PSR sort gate)": "high polyreactivity"},
      {"sequence": "QVRLVESGGGLVQAGGSLRLSCAASGSTFWSYAMGWYRQAPGKERELVAAISWSGDSTYYADSVKGRFTISRDNAKNTVYLQMNSLKPEDTAVYYCAADYTGSFYTYDYWGQGTQVTVSS", "polyreactivity (PSR sort gate)": "low polyreactivity"},
      {"sequence": "QVKLVESGGGLVQAGGSLRLSCAASGSTFYAYVMGWYRQAPGKARELVAAISKGGGSTYYADSVKGRFTISRDNAKNTVYLQMNSLKPEDTAVYYSAAYASYSNYRKYNYWGQGTQVTVSS", "polyreactivity (PSR sort gate)": "high polyreactivity"},
      {"sequence": "QVQLVESGGGLVQAGGSLRLSCAASGSTFYDYAMGWYRQAPGKERELVAAISQSGGSTYYADSVKGRFTISRDNAKNTVYLQMNSLKPEDTAVYYCAADSGYSLYDYWGQGTQVTVSS", "polyreactivity (PSR sort gate)": "low polyreactivity"},
      {"sequence": "QVQLVESGGGLVQAGGSLRLSCAASGSTSLINVMGWYRQAPGKERELVAAISSSDGSTYYADSVKGRFTISRDNAKNTVYLQMNSLKPEDTAVYYCNADYYGYYGLMGYWGQGTLVTVSS", "polyreactivity (PSR sort gate)": "low polyreactivity"},
      {"sequence": "QVQLVESGGGLVQAGGSHRLSCAASGIIFRGYPMGWYRPAPGIERELVASITRRRGSTRYADSVKGRFTISRDNAKNTVYLQMNSLKPEDTAVYYCAAVGVGKTSTAYGYWGQGTQVTVSS", "polyreactivity (PSR sort gate)": "high polyreactivity"},
      {"sequence": "QVHLVESAAGLVQEGGSLRVSCAASGRIFDIYAMGGYRQSTGKERELVAAITLRGGTTYADSVKGRFTISRDNAKNSVYLQMNSLKPEDTAVYYCARYHWYYRVSKSESWGQGTQVTVSS", "polyreactivity (PSR sort gate)": "high polyreactivity"},
      {"sequence": "QFQLVESGGGLVQAGGSLRLSCAASGFTFRRVTAIGWYRQAPGKERELVAGINSGDITYYADSVKGRFTFSRDNAKNTVYLQMNSLIPEDTAVYYCAARVVYGYGHNDYWGQGTQVTVSS", "polyreactivity (PSR sort gate)": "low polyreactivity"},
      {"sequence": "QVQLVESGGGLVQAGGSLRLSCAASGSIFQFSAMGWYRQAPGKERPLVAAISDRGGSTYYADSVKGRFTISRDNAKNTVYLLMNSLKPEDTAVYYCAKGGEVSQGYTDEYDYWGQGTQVTVSS", "polyreactivity (PSR sort gate)": "low polyreactivity"},
      {"sequence": "QVQLVESGGGLVQAGGSLRLSCAASGSIFVAYAMGWYRQAPGKERELVAAITAVGSTYYADSVKGRFTISRDNAKNTVYLQMNSLKAEDTAVYYCAKRQLRPTYRYGYWGQGNQVTVSS", "polyreactivity (PSR sort gate)": "low polyreactivity"},
      {"sequence": "QVQLVESGGGLVQAGGSLRLSCAASGSIFYDNAMGWYRQAPGKERELVAAISGNDATTYYADSVKGRFTISRDNAKNTVYLQMNSLKPEDTAVYSCAADYVLNPWRTRYDYWGQGTQVTVSS", "polyreactivity (PSR sort gate)": "low polyreactivity"},
      {"sequence": "QVQLQESGGCLVQAGGSLRLSCAASGTNLYSLGMGWSRQAPGKRREFVASITWGTTTNYAESENGRFTISRDNAKKTVYPQRNSLKPEDTAVYYCAAPPFGDSSYHYWGQATQVTVSS", "polyreactivity (PSR sort gate)": "low polyreactivity"},
      {"sequence": "QVQLVESGGGLVQAGGSLRLSCAASGRTQSANAMGWYREAPGKERELVATISTRGGRTYYADSVKGRFTISRDNAKNTVYLQMNSLKPEDTAVYYCAVTIRAKYTMKEDYWGQGTQVTVSS", "polyreactivity (PSR sort gate)": "low polyreactivity"},
      {"sequence": "QVQLVESGGGLVQAGGSLRLSCAASGSIFSSYAMGWDRQAPGKERELVAAISSGGGSTYYADSVKGRFTISRDNAKHTVYLQMNSLKPEDTAVYYCNAGKEALKTTYTYDYWGQGTQVTVSS", "polyreactivity (PSR sort gate)": "high polyreactivity"},
      {"sequence": "QVQLVESGGGLVQAGGRLRLSCAASGSTIKFNAMGWYRQAPGKERELVAAISRGGRTNYADSVKGRFTISRDNAKYTVYLQMNSLKPEDTAVYKCAKDVAGLFHVGALYYYWGQGTQVTVSS", "polyreactivity (PSR sort gate)": "low polyreactivity"}
    ]}
  ]
}
